T1: MUC1 (human, UniProt P15941 1039-1148)
T1 chain: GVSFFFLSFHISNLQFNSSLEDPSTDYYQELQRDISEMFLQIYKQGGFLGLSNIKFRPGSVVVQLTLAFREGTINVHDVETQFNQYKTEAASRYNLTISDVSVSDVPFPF

B1: anti-Muc1 T4E3 Fab (Fab, V domains shown)
VH: QVQLVQSGGGLVQPGGSLRLSCAASGFTFDDYAMHWVRQAPGKGLEWVSGISWNSGSIGYADSVKGRFTISRDNAKNSLYLQMNSLRAEDTALYYCAKDIGSGSYYNYYYGMDVWGQGTTATISS
VL: SSELTQDPAVSVALGQTVRITCQGDSLRSYYASWYQQKPGQAPVLVIYGKNSRPSGIPDRFSGSNSGSTASLTITGAQAEDEADYYCNSRDRYGNSLVIFGGGTKLTVL
B2: T4E3 scFv (scFv, V domains shown)
VH: B1 VH
VL: B1 VL

Target: T1, MUC1
Assay: flow

Binder | EC50 [nM]
B1 | 16
B2 | 7.48

Source: US12448462 (dated 2025)
